The values below come from article PMC6656915, “The MmpL3 interactome reveals a complex crosstalk between cell envelope biosynthesis and cell elongation and division in mycobacteria” (Scientific Reports, 2019).

A word on the Kd: it is the equilibrium constant for the complex coming apart. Low readings indicate tighter binding, high ones weaker binding. One may read the koff as a measure of how fast the partners let go of each other. The kon is the rate constant with which the complex forms. A low value points to slower complex formation.

Experiment [1] addresses MmpL3 protein from M. tuberculosis, C-terminally hexahistidine-tagged, devoid of gfp fusion (M. tuberculosis) (UniProt P9WJV5). The experiment in a line: SPR; MmpL3 immobilised on CM5 chip; analytes injected at two-fold increasing concentrations from 0.6 µM up to 10 µM, 10 µL/min for 30 sec, dissociation 180 sec, 25 °C; 20 mM HEPES pH 7.4, 150 mM NaCl, 0.2% Triton X-100 (0.03% DDM instead for AftD); global fit to the 1:1 Langmuir binding model.

For experiment [2], the target named is T1, MmpL3 from M. tuberculosis, C-terminally hexahistidine-tagged, purified (M. tuberculosis, UniProt P9WJV5 1-944).
T1 chain: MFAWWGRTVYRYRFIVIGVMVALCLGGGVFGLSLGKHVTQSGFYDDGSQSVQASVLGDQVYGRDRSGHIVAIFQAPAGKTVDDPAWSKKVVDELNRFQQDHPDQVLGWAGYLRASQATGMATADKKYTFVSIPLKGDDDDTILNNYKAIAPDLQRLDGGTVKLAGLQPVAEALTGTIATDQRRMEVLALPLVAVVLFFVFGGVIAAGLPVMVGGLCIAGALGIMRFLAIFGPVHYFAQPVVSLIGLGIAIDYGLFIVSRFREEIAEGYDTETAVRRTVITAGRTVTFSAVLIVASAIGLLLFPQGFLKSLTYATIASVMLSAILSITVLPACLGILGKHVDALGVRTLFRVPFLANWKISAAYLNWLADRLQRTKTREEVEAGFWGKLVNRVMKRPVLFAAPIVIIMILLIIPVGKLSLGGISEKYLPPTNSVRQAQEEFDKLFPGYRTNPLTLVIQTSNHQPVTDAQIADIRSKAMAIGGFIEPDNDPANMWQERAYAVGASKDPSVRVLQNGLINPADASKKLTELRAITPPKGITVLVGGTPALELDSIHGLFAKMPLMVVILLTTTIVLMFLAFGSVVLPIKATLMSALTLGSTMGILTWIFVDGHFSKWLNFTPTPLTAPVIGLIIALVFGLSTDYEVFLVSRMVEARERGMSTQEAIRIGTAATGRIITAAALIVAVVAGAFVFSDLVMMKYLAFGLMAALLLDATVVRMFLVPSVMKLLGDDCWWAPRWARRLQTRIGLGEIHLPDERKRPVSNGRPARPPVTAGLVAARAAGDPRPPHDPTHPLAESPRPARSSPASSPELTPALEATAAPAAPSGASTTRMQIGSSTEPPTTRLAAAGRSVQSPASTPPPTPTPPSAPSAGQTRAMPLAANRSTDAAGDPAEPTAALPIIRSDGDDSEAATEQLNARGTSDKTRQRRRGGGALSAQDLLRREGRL
The experiment in a line: SPR.

Experiment [3] deals with T2, MmpL3 protein from M. tuberculosis, C-terminally hexahistidine-tagged, devoid of gfp fusion (M. tuberculosis, UniProt P9WJV5 1-944).
T2 construct: MmpL3 (Rv0206c), mycolic acid (TMM) transporter of M. tuberculosis; also called MmpL3tb; Rv0206c
T2 sequence: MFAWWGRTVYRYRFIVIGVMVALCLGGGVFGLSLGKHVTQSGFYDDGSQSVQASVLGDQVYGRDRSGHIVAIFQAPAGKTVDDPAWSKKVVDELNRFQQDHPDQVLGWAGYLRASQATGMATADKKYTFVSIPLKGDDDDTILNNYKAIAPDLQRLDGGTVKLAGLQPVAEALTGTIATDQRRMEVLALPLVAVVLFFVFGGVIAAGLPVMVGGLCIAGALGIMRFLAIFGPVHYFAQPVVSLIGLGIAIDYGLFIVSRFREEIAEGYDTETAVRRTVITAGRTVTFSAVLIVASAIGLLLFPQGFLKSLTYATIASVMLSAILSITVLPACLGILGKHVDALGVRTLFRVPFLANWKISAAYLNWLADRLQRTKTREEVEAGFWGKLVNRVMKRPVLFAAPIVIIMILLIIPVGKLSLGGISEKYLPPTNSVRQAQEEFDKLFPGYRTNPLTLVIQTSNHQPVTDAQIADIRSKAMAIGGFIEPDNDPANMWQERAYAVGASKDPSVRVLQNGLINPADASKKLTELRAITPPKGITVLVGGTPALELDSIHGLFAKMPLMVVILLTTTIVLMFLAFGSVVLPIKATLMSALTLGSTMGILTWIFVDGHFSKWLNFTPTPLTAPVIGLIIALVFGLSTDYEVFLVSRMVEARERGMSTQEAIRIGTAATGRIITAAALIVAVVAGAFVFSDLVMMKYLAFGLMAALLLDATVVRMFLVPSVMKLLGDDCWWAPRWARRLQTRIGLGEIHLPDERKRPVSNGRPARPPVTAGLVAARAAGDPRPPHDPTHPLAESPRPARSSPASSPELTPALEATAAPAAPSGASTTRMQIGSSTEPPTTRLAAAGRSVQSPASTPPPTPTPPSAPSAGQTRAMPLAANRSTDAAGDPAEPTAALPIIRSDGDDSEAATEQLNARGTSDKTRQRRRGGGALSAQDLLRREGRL
The experiment in a line: SPR; MmpL3 immobilised on CM5 chip; analytes injected at two-fold increasing concentrations from 0.6 µM up to 10 µM, 10 µL/min for 30 sec, dissociation 180 sec, 25 °C; 20 mM HEPES pH 7.4, 150 mM NaCl, 0.2% Triton X-100 (0.03% DDM instead for AftD); global fit to the 1:1 Langmuir binding model. Particulars: both partners purified. In general terms: SPR reads the build-up and loss of mass on a sensor chip optically.

Turning to “AftD from Mycobacterium abscessus (enzyme)”, in experiment [1], the Kd came to 170 nM, the koff came to 0.00335 s⁻¹ and the kon was determined as 19400 M⁻¹ s⁻¹.

B1: AftD from Mycobacterium abscessus, N-terminal 10-histidine tag, purified (natural protein)
chain: MTYRLDSSALSRRWLAVAAAVSLLLTFSQSPGQISPDTKLDLAINPLRFAARALNLWSSDLPFGQAQNQAYGYLFPHGAFFSLGHLLGVPAWVTQRLWWALLIVAGFWGLIRVAEALGIGTRGSRIIAAVAFALSPRVLTTLGAISSETLPMMLAPWVLLPLILTFQGRMSPRRAAALSAVAVALMGAVNAVATALACGVAVIWWLAHRPNRTWWRFTAWWIPCLALASTWWIVALLIFGKISPKFLDFIESSGVTTQWTSLTEVLRGTDSWTPFVAPTATAGSSLVTQSAMVIATTMLAAAGMAGLAMRGMPARGRLVAVLLIGLVLLTAGYTGALGSPIAQQIQFFLDDGGTPLRNVHKLEPLIRLPLILGLAHALSRIPLPASVPVRQWLSALARPERNRAVAFAIVLLVALAASTSLAWTGRLVPRGGFDAIPGYWNDTAHWLADHDTGGRALVVPGAPFAIQTWGLTRDEPLQALGQTPWGVRDSIPLTPPETIRAIDSVQQLFAAGRPSDGLADTLREQGISYLVVRNDLDPDTSRSARPILVHHTIEGSPGLTKVAQFGDPVGAGAVEGFVADSDLRPQYPAVEIYAVGANDHDGEPYFTDIDTMPRVAGGPEALLRLNERRRQLNEPPLGPSLLATDAAQAGLRPGPAVVTDTPLARETDYGRVDDHSSAIRAPGDKRRTFNRVPDYPATGVPLVNGSWTGGTITASSSASDSTALPNVAPGTSTAAAIDRDNATSWVSSSLEAALGQWIRIDLDRPITNAILTVTPSATALGAQVRRLEVETDNGTTSVRFDEPGQPLNIALRPGETTWVKVTATGTDDGTSGVQFGVTELSLTQYDAAGFAHTVDLRHSATVPPPPAGDNPLGWDLGSPLQGRSGCAPSPQRLRCAATLSLAPEEPGTFIRTLTVPQPVSLTPRLWVRARPGPQLRDLIQQPGTTVATGDSDVIDPQGSSYAATDGDPGTVWTAPQDSVQRLHLPSLVIKLPKPTAIGAIRLRPSRTEVPAHPKQVAINLGDGPQLRSIDPKADVTELALHPSITDTITVTVTDWTDIIDRTALGFDQLKPPGIAEVIALDADHRPIAPADNAANSKRKITIGCNRGPILALAGRFVPMSITATVRELLDGTVIQATPCDTSPIATGAGIQDVTVNPSQQFIVDGVQLTAAATEPASATMTVAPKGAWGPDRREVTAEPSAHERVLAVPESINPGWAARDAQGHLLTPVRVNGWQQGWVLPAGDGGKITLTFGLNTWYRAGLFGGLALLPILACLALLPARGRTTLPPVAPWCAGPAAGVAVLAALTAISGISGMAVGLAALAFKVWTRWPLRAVTAAGVYLAGGSLLLAGAALSRHPWRSVGGYTGHSWWIQLLALISVASVALAAVRLPSRRCWKRRSASREGDSTSA
In experiment [2], B1 gave a Kd of 172 nM.

B2: CrgA from M. tuberculosis H37Rv with C-terminal hexahistidine tag (natural protein)
chain: MPKSKVRKKNDFTVSAVSRTPMKVKVGPSSVWFVSLFIGLMLIGLIWLMVFQLAAIGSQAPTALNWMAQLGPWNYAIAFAFMITGLLLTMRWH
notes: CrgA (Rv0011c), cell division regulatory protein of M. tuberculosis H37Rv; also called Rv0011c
Regarding B2, in experiment [3], the Kd is 470 nM, the koff is 0.0015 s⁻¹ and the kon was found to be 3180 M⁻¹ s⁻¹.

B3: Rv0207c from M. tuberculosis H37Rv with C-terminal hexahistidine tag (natural protein)
chain: MSLTEDVTSQTSESLARHSVLAEDLSQDGLTSLGAPGARVLLVWDAPNLDMGLGSILGRRPTALERPRFDALGRWLLARTAEIVAGRPGISTEPEATVFTNIAPGSAEVVRPWVDALRNVGFAVFAKPKVDEDSDVDRDMLAHIDERYREGLAALVVASADGQAFRQPLEAVARSGTPVQVLGFREHASWALASDTLEFVDLEDIAGVFREPLPRIGLDSLPEQGAWLQPFRPLSSLLTSRV
notes: Rv0207c, conserved protein of unknown function of M. tuberculosis H37Rv
Turning to B3, the Kd in experiment [2] worked out at 152 nM. In experiment [3], the affinity, expressed as Kd, was 150 nM; the koff came to 0.00227 s⁻¹; the kon was found to be 14900 M⁻¹ s⁻¹.
